From article PMC8069351, “Characterization of Two Unique Cold-Active Lipases Derived from a Novel Deep-Sea Cold Seep Bacterium” (Microorganisms, 2021)

Substrate: CCCCCCCCCCCCCCCC(=O)Oc1ccc([N+](=O)[O-])cc1
Assay: purified protein
Assay type: biochemical, Pseudomonas sp. gcc21
Details: 50 mM Tris-HCl pH 8.0, 4 °C, substrate 0.2-1.2 mM, text b44 swaps the two lipases' Km

B1: Lipase 2 (Pseudomonas sp. gcc21) (protein)
chain: MNSPLLKLSTLTLGLVFAAGAYAFNPGNPGGPSNPGGDQPVESGFPSVGNFEASGSFATTNASEGPSCTIYRPRTLGENDLKHPIILWGNGTGTSPSGYSALLNHWASHGFVVAAANTTNAGSGAEMLACLDYLAEQNGRGSGTYAGKLNLDAVGSSGHSQGGGGSIMAGQDSRITATAPFQPYTLGLGHRRASQSNQNGPMFLMTGSADTLASSEANGRPVFNNANVPVFWGELQGASHFVPAFNGGGYRGPSTAWYRYHLMGDQNAESTFYGADCKLCTSSEWKVQKKGIQ
Km: 0.02 mM
kcat: 2.7 s⁻¹
kcat/Km: 140000 M⁻¹ s⁻¹
